Source: the nanobody polyreactivity screen of Harvey et al. (2022)

experiment: yeast display, Sf9 membrane polyspecificity reagent, FACS + sequencing; frameworks hold sequencing errors
In short: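 A nanobody's polyreactivity label depends on the gate it was sorted from. Yeast display cells were stained with 10% biotinylated, detergent-solubilized Sf9 membrane reagent for 1 hour at 4 °C, enriched on streptavidin microbeads and sorted by FACS. The low and high (top ~1%) gates were set on anti-HA fluorescence for expression and streptavidin fluorescence for reagent binding.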

| Sequence | polyreactivity (PSR sort gate) |
| --- | --- |
| QVQLVESGGGLVQAGGSLRLSCAASGSTFDPNAMGWYRQAPGKERELVAVIDSGDGTTYYADSVKGRFTISRDNAKNTVYLQMNSLKPEDTAVYYCAVDESTSYYDDHEDYWGQGTQVTVSS | low polyreactivity |
| QVQLVESGGGLVQAGGSLRLSCAASGSTFDPNTKGWYRQAPGKERELVATITSVDSTNYADSVKGRFTISRDNANNTVYLQMNSLKTEDTAVYYCNADFVRVFFYAYDYWGQGTQVTVSS | low polyreactivity |
| QVQLVESGGGLVQAGGSLRLSCAASGSTFDPNVMGWYRQAPGKERELVAVITTTGVSTYYADSVKGRFTISRDNAKNTVYLQMNSLKPEDTAVYYCNAKWYWYLTRDAYRYRYTYDYWGQGTQVTVSS | low polyreactivity |
| QVQLVESGGGLVQAGGSLRLSCAASGSTFDPYAMGWYRQAPGKERELVAAITGGGSTNYADSVKGRFTISRDNAKNTVYLQMNSLKPEDTAVYYCAATIPKPYHSGLRLLGQGTQVTVSS | low polyreactivity |
| QVQLVESGGGLVQAGGSLRLSCAASGSTFDPYAMGWYRQAPGKERELVATITYSGGRTYYADSVKGRFTISRDNAKNTVYLQMNSLKPEDTAVYYCAARVYTHYREFDYWGQGTQVTVSS | low polyreactivity |
| QVQLVESGGGLVQAGGSLRLSCAASGSTFDPYAMGWYRQAPGKESELVAAISRNGGRTYYADSVKGRFTISRDNAKNTVYLQMNSLTPEDTAVYYCAARSTGYGSTGRLLWYGHWGQGTQGTVSS | high polyreactivity |
| QVQLVESGGGLVQAGGSLRLSCAASGSTFDRNAMGWYRQAPGKERELVAAINWRGGSTYYADSVKGRFTISRDNAKNTVYLQMNSLKPEDTAVYYCAKRQYSSDGRGFGYWGQVTQVTVSS | high polyreactivity |
| QVQLVESGGGLVQAGGSLRLSCAASGSTFDRNAMGWYRQAPGKERELVAAISRRGGRTYYADSVKGRFTISRDNAKNTVYLQMNSLKPEDTAVYYCAAGKITFPMDYWGQGTQVTVSS | high polyreactivity |
| QVQLVESGGGLVQAGGSLRLSCAASGSTFDRNVMGWYRQAPGKERELVAAISFSGGSTYYADSVKGRFTISRDTAKNTVYLQMNSLKPEDTAVYYCAADDGYSYIYAAGDYWGQGTQVTVSS | low polyreactivity |
| QVQLVESGGGLVQAGGSLRLSCAASGSTFDRNVMGWYRQAPGKERELVAAISRVSSTNYADSVKGRFTISRDNAKNTVYLQMNSLKPEDTAVYYFAADGAGSIMNYWGQGTQVTVSS | low polyreactivity |
| QVQLVESGGGLVQAGGSLRLSCAASGSTFDRYALGWYRQAPGKERELVAAITRGGSTYYADSVKGRFTISRDNAKNTVYLQLNSLKPDDTAVYYCAAAHWWVRVRGARYSYWGHGTQVTVSS | high polyreactivity |
| QVQLVESGGGLVQAGGSLRLSCAASGSTFDRYAMGWYRQAPGKERELVAAISWSGGSTYYADSVKGRFTISRDNAKNTVYLQMNSLKREDTAVYYCARRYARITPVYPPLNYWGQGTQVTVSS | high polyreactivity |
| QVQLVESGGGLVQAGGSLRLSCAASGSTFDRYAMGWYRQAPGKERELVAAITRGGSTYYADSVKGRFTISRDNAKNTVYLQMNSLKPEDTAVYYCAAAQWWFRVRGARYYYWGQGTQVTVSS | high polyreactivity |
| QVQLVESGGGLVQAGGSLRLSCAASGSTFDSNAMGWYRQAPGKERELVAAIDYSSDSTYYADSVKGRFTISRDNAKNTVYLQMNSLKPEDTAVYYCAADIPPWGGDYWGQGTQVTVSS | low polyreactivity |
| QVQLVESGGGLVQAGGSLRLSCAASGSTFDSNVMGWYRQAPGKERELVAAINYSGVRTYYADSVKGRFTISRDNAKNTVYLQMNSLKPEDTAVYYCNARLFSYRYPEGGYWGQGTQVTVSS | high polyreactivity |
| QVQLVESGGGLVQAGGSLRLSCAASGSTFDSNVMGWYRQAPGKEWELVAAISIGDSTNYADSVKGRFTISRDNAKKTVYLQMNSLKPEDTAVYSCNATYSRGGYWYFGFDWGQGTQVTVSS | low polyreactivity |
| QVQLVESGGGLVQAGGSLRLSCAASGSTFDSYAMGRYRQAPGKERELVAAITNGGSTYYADSVKGRFTISRDNAKNTVYLQMHSLKPEDTAGYYCATDDYLLDNLYDYWGQGTQVTVSS | low polyreactivity |
| QVQLVESGGGLVQAGGSLRLSCAASGSTFDSYAMGWYRQAPGKERELVAAITTTGGSTFYADSVKGRFTISRDNAKNTVYLQMNSLKPEDTAVYFCAADDGWQEFEYWGQGTQVTVSS | low polyreactivity |
| QVQLVESGGGLVQAGGSLRLSCAASGSTFDSYVMGLYRQAPGKERELFAAISSDDSTYYADSVKGRFTISRDNAKNTVYLQMNSLKPEDTAVYYCAATNFRDYYWSWKYYYWGQGTQVTVSS | low polyreactivity |
| QVQLVESGGGLVQAGGSLRLSCAASGSTFDTNAMGWYRQAPGKERELVAAITSGGNTYADSVKGRFTISRDNAKNTVYLQMNSLKPEDTAVYYCAAEDVYTGWYDYWGQGTQVTVSS | low polyreactivity |
| QVQLVESGGGLVQAGGSLRLSCAASGSTFDTYAMGGYRQAPGKERELVAAISYPGGNTYYADSVKGRFTISRDNAKNTVYLQMNRLKPEDTAVYYCNADVVDGGLAYDYWGQGTQVTVSS | low polyreactivity |
| QVQLVESGGGLVQAGGSLRLSCAASGSTFDTYAMGWYRPAPGKERELVAAINSGGGTNYADSVKGLFTISRDNAKNTVYLQMNSLKPEDSSVYYCSTDIRRDAGGVDFDYWGQGTQLTVSS | low polyreactivity |
| QVQLVESGGGLVQAGGSLRLSCAASGSTFDTYAMGWYRPAPGKERELVAAISRSGTSTYYADSVKGRFTISRDNAKNTVYLQMNSLKPEDSAVYYCAAYGPRVNGEIGREYYYWGQGTQVTVSS | low polyreactivity |
| QVQLVESGGGLVQAGGSLRLSCAASGSTFDTYAMGWYRQAPGKERELVAAISSGGSTNYADSVKGRFTISRDNAKNTVYLQMNSLKPEDTAVYYCADSNKSVFPVYGTLDEYWGQGTQVTVSS | low polyreactivity |
| QVQLVESGGGLVQAGGSLRLSCAASGSTFDTYAMGWYRQAPGKERELVAAISYSGASTYYADSVKGRFTISRDNAKNTVYLQMNSLKPEDTAVYYCSADGGYYWLYDYWGQGTQVTVSS | low polyreactivity |
| QVQLVESGGGLVQAGGSLRLSCAASGSTFDVNALGWYSQAPGKDRELVAAISWNSGSTYYADSVKGRFTISRDNAKNTVYLQMNSLKPEDTAVYYCAATYGTGRRSKYGYWGQGTQVTVSS | high polyreactivity |
| QVQLVESGGGLVQAGGSLRLSCAASGSTFDVNAMGWYRQAPGKERELVAAISFSGGSTYYADSVKGRFTISRDNAKNTVYLQMNSLKPEDTAVYYCADYDYWGQGTQVTVSS | low polyreactivity |
| QVQLVESGGGLVQAGGSLRLSCAASGSTFDVYAMGWYRQAPGKERELVAAISRSGGSTYYADSVKGRFTISRDNAKNTVYLQMNSLKPEDTAVSYCNARLARWGSDEYNYWGQGTQVTVSS | low polyreactivity |
| QVQLVESGGGLVQAGGSLRLSCAASGSTFDVYAMGWYRQAPGKERELVAAITWIGGSTYYADSVKGRFTISRDNAKNTVYLQMNSLKPDDTAVYYCARHDYGWVDYWGQGTQVTVSS | high polyreactivity |
| QVQLVESGGGLVQAGGSLRLSCAASGSTFDVYAMGWYRQAPGKERELVATITGSGGSTYYADSVKGRFTISRDNAKNTVYLQMNSLKPEDTAVYYCAARYPVSGGYDYWGQGTQVTVSS | low polyreactivity |
